US20190167815

How the values were obtained:
SBS#75114 (synthetic) = assay: cell_activity; conditions: KRAB fusion mRNA, C9 line, isoform-specific RT-qPCR
SBS#75115 (synthetic) = assay: cell_activity; conditions: KRAB fusion mRNA, C9 line, isoform-specific RT-qPCR; microarray: only C9orf72 repressed

## CACGCCCCGGCCCCGGCCCCGGCCCCTA (double strand) [C9orf72 reverse site, frame i]
SBS#75114 (synthetic)
  activity: > 70 % repression
SBS#75115 (synthetic)
  activity: > 70 % repression
